# Positions count from the first letter of the chain named. Numbers in names are those of the source.
# T1: cynomolgus monkey CSF1R ECD (cynomolgus monkey, UniProt P07333 20-505 (human entry))
# T1 construct: also called cynoCSF1R ECD
# T1 chain: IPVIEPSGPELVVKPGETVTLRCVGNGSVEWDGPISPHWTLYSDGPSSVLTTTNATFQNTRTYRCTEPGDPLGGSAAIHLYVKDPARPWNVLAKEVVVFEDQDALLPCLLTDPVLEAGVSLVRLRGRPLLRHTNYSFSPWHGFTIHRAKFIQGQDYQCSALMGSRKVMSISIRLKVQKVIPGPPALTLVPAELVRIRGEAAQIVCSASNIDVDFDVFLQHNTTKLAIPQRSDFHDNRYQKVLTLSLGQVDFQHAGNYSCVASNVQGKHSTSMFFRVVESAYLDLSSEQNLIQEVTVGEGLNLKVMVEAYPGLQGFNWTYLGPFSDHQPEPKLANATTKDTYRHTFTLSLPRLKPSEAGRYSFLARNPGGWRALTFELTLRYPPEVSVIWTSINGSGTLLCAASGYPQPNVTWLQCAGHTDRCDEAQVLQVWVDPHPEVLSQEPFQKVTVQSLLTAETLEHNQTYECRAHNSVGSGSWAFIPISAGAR
# T2: mouse CSF1R ECD (mouse, UniProt P09581 20-515)
# T2 construct: extracellular domain
# T2 sequence (looked up): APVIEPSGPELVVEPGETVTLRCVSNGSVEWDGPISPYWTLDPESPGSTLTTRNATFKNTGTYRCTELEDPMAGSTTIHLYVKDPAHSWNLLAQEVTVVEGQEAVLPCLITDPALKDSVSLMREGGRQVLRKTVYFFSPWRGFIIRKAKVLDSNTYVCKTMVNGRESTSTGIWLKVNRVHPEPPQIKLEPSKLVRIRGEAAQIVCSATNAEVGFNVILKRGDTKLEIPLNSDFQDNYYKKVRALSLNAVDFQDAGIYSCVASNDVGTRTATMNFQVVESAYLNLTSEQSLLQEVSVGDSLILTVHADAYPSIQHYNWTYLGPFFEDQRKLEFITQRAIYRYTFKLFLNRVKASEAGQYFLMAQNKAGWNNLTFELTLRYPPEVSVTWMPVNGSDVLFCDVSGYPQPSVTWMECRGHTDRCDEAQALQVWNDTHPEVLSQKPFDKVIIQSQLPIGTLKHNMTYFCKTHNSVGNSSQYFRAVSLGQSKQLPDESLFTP
# T3: rat PD-1 (rat, UniProt D3ZIN8 25-287)
# T3 sequence: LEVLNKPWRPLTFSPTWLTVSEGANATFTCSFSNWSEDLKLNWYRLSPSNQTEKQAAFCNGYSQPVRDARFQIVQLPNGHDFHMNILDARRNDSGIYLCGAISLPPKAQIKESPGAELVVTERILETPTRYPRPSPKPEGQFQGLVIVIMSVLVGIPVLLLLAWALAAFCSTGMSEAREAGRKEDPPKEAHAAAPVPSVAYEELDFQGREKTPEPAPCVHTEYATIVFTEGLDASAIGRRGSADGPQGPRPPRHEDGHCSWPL
# B1: huAb2 (antibody, human IgG4 S228P, kappa)
# heavy: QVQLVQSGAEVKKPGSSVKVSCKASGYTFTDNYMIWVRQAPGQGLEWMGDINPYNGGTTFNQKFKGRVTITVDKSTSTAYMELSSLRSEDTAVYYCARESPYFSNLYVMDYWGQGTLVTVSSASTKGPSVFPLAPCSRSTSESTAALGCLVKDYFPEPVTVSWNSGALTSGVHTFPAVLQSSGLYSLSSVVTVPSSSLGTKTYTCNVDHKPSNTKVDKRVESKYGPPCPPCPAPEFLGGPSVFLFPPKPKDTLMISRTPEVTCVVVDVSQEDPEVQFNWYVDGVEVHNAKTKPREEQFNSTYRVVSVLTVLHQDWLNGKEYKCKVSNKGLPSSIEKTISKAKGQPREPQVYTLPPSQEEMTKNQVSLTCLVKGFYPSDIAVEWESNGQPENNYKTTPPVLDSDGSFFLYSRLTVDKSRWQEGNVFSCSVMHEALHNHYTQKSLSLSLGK
# light: EIVLTQSPATLSLSPGERATLSCKASQSVDYDGDNYMNWYQQKPGQAPRLLIYAASNLESGIPARFSGSGSGTDFTLTISSLEPEDFAVYYCHLSNEDLSTFGGGTKVEIKRTVAAPSVFIFPPSDEQLKSGTASVVCLLNNFYPREAKVQWKVDNALQSGNSQESVTEQDSKDSTYSLSSTLTLSKADYEKHKVYACEVTHQGLSSPVTKSFNRGEC
# notes: also called huAb 0301-L0H1; h0301-H1 / h0301-L0
# B2: huAb4 (antibody, human IgG4 S228P, kappa)
# heavy: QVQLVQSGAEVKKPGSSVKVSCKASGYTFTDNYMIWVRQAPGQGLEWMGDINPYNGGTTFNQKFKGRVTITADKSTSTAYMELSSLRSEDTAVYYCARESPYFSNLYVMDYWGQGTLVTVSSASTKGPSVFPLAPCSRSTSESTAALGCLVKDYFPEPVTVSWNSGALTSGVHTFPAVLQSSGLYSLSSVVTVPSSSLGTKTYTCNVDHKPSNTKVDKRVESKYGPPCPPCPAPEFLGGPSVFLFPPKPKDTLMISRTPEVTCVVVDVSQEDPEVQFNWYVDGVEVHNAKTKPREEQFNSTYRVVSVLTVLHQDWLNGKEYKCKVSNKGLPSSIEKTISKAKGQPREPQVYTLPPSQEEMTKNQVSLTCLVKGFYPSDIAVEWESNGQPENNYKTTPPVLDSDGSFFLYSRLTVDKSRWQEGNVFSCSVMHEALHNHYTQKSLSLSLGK
# light: B1 light with E1N
# notes: also called huAb 0301-L1H0; h0301-H0 / h0301-L1
# B3: huAb1 (antibody, human IgG4 S228P, kappa)
# heavy: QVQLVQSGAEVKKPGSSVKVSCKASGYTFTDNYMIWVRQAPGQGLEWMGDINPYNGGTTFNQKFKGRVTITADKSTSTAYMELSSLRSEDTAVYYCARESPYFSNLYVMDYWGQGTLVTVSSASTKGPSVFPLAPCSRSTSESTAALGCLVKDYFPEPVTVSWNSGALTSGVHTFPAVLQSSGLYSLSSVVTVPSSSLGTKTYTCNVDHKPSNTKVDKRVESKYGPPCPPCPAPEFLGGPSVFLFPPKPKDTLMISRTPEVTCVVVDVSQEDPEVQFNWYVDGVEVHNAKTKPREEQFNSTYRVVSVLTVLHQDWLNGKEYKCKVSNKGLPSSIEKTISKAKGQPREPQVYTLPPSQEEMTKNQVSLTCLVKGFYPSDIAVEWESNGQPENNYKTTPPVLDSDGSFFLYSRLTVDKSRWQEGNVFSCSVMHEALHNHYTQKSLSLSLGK
# light: B1 light
# notes: also called huAb 0301-L0H0; FPA008
# B4: huAb3 (antibody, human IgG4 S228P, kappa)
# heavy: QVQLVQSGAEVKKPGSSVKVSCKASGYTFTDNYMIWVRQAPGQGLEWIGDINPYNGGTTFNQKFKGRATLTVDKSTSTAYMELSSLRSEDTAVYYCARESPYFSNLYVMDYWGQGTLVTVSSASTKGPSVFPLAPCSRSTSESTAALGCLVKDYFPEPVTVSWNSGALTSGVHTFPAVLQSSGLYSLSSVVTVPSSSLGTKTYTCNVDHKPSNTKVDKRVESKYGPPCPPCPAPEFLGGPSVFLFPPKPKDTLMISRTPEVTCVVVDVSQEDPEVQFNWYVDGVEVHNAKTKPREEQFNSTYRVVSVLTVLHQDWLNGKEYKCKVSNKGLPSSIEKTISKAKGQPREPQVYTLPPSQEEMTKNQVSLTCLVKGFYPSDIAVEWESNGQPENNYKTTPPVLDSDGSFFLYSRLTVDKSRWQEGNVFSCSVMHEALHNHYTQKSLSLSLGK
# light: B1 light
# notes: also called huAb 0301-L0H2; h0301-H2 / h0301-L0
# B5: huAb5 (antibody, human IgG4 S228P, kappa)
# heavy: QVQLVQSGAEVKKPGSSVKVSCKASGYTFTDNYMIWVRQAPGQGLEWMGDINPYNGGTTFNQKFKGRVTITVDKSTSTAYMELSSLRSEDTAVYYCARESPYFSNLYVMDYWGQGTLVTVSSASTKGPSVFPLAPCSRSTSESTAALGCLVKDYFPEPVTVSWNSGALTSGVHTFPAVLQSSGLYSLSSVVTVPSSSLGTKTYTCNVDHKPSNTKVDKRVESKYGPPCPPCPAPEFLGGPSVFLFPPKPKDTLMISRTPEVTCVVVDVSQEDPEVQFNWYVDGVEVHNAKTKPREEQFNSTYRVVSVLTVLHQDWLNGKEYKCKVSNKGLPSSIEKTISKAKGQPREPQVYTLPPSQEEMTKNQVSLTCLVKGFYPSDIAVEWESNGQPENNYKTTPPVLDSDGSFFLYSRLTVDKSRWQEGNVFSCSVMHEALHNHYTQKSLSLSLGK
# light: B1 light with E1N
# notes: also called huAb 0301-L1H1; h0301-H1 / h0301-L1
# B6: huAb6 (antibody, human IgG4 S228P, kappa)
# heavy: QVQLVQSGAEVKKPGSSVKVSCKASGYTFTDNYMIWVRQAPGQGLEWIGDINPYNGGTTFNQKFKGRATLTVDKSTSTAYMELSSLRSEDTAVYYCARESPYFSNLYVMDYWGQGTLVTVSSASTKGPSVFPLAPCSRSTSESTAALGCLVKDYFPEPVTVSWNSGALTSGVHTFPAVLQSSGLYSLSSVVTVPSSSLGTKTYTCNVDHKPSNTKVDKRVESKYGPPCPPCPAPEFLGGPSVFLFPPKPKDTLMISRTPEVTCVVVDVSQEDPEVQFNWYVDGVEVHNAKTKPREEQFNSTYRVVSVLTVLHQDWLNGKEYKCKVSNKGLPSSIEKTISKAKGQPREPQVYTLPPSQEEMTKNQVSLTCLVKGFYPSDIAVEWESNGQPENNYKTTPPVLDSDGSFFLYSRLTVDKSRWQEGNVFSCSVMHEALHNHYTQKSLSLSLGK
# light: B1 light with E1N
# notes: also called huAb 0301-L1H2; h0301-H2 / h0301-L1
# B7: nivolumab (antibody, human IgG4 S228P, kappa, V domains shown)
# VH: QVQLVESGGGVVQPGRSLRLDCKASGITFSNSGMHWVRQAPGKGLEWVAVIWYDGSKRYYADSVKGRFTISRDNSKNTLFLQMNSLRAEDTAVYYCATNDDYWGQGTLVTVSS
# VL: EIVLTQSPATLSLSPGERATLSCRASQSVSSYLAWYQQKPGQAPRLLIYDASNRATGIPARFSGSGSGTDFTLTISSLEPEDFAVYYCQQSSNWPRTFGQGTKVEIKR
# notes: Fully human IgG4 (S228P); also called Opdivo; 5C4
# B8: huAb8 (antibody, human IgG4 S228P, kappa, V domains shown)
# VH: QVQLVQSGAEVKKPGSSVKVSCKASGYTFSDFNIHWVRQAPGQGLEWMGYINPYTDVTVYNEKFKGRVTITSDKSTSTAYMELSSLRSEDTAVYYCASYFDGTFDYALDYWGQGTLVTVSS
# VL: EIVLTQSPATLSLSPGERATLSCRASESVDNYGLSFMNWYQQKPGQAPRLLIYTASNLESGIPARFSGSGSRTDFTLTISSLEPEDFAVYYCQQSKELPWTFGQGTKVEIKR
# notes: also called huAb 0302-L1H1; h0302-H1 / h0302-L1
# B9: huAb13 (antibody, human IgG4 S228P, kappa, V domains shown)
# VH: QVQLVQSGAEVKKPGSSVKVSCKASGYIFTDYNMHWVRQAPGQGLEWMGEINPNNGVVVYNQKFKGRVTITVDKSTSTAYMELSSLRSEDTAVYYCTRALYHSNFGWYFDSWGQGTLVTVSS
# VL: B8 VL with R24K, E27Q, N31Y, Y32D, L34D, F36H, R72G, S95G, K96N, L98D
# notes: also called huAb 0311-L0H1; h0311-H1 / h0311-L0
# B10: huAb15 (antibody, human IgG4 S228P, kappa, V domains shown)
# VH: B9 VH with R67T, V68T, I70L
# VL: B8 VL with R24K, E27Q, N31Y, Y32D, L34D, F36H, R72G, S95G, K96N, L98D
# notes: also called huAb 0311-L0H2; h0311-H2 / h0311-L0
# B11: huAb9 (antibody, human IgG4 S228P, kappa, V domains shown)
# VH: B8 VH
# VL: B8 VL with L4V, Y40F
# notes: also called huAb 0302-L2H1; h0302-H1 / h0302-L2
# B12: huAb14 (antibody, human IgG4 S228P, kappa, V domains shown)
# VH: B9 VH
# VL: DIVLTQSPATLSLSPGERATLSCKASQSVDYDGDSHMNWYQQKPGQAPRLLIYTASNLESGIPARFSGSGSGADFTLTISSLEPEDFAVYYCQQGNEDPWTFGQGTKVEIKR
# notes: also called huAb 0311-L1H1; h0311-H1 / h0311-L1
# B13: huAb11 (antibody, human IgG4 S228P, kappa, V domains shown)
# VH: B8 VH with M48I, V68A, I70L
# VL: B8 VL
# notes: also called huAb 0302-L1H2; h0302-H2 / h0302-L1
# B14: huAb10 (antibody, human IgG4 S228P, kappa, V domains shown)
# VH: B8 VH with M48I, V68A, I70L
# VL: B8 VL with R72G
# notes: also called huAb 0302-L0H2; h0302-H2 / h0302-L0
# B15: huAb12 (antibody, human IgG4 S228P, kappa, V domains shown)
# VH: B8 VH with M48I, V68A, I70L
# VL: B8 VL with L4V, Y40F
# notes: also called huAb 0302-L2H2; h0302-H2 / h0302-L2
# B16: huAb16 (antibody, human IgG4 S228P, kappa, V domains shown)
# VH: B9 VH with R67T, V68T, I70L
# VL: B12 VL
# notes: also called huAb 0311-L1H2; h0311-H2 / h0311-L1
# B17: huAb7 (antibody, human IgG4 S228P, kappa, V domains shown)
# VH: B8 VH
# VL: B8 VL with R72G
# notes: also called huAb 0302-L0H1; h0302-H1 / h0302-L0
# How the values were obtained:
# [1] = biological target: T1, cynomolgus monkey CSF1R ECD; assay: binding test as described in WO 2011/140249
# mouse CSF1R ECD = biological target: T2, mouse CSF1R ECD; assay: binding test as described in WO 2011/140249
# rat PD-1 = biological target: T3, rat PD-1; assay: FACS analysis
Binder,binding result [1],binding result (mouse CSF1R ECD),binding result (rat PD-1)
B1,binds,no binding,–
B2,binds,no binding,–
B3,binds,no binding,–
B4,binds,no binding,–
B5,binds,no binding,–
B6,binds,no binding,–
B7,–,–,no binding
B8,binds,no binding,–
B9,binds,no binding,–
B10,binds,no binding,–
B11,binds,no binding,–
B12,binds,no binding,–
B13,binds,no binding,–
B14,binds,no binding,–
B15,binds,no binding,–
B16,binds,no binding,–
B17,binds,no binding,–

# Reference: patent US20190202921A1 (Five Prime, published 2019)
